Source: article PMC3193175

Molecular target: split SUMO-modified PCNA (N-fragment and ^SUMOC-fragment self-assembled) (yeast) (UniProt P15873)
Assay: SEC

stoichiometry N: 3
Substance: split SUMO-modified PCNA (N-fragment and ^SUMOC-fragment self-assembled) (from UniProt P15873 1-163; P15873 165-258) (complex)
